Measured values published in patent US10562947B2, “Compositions and methods for preventing or treating diseases, conditions or processes characterized by aberrant fibroblast proliferation and extracellular matrix deposition” (MOERAE MATRIX, INC., priority 2011, dated 2020).
Where a SMILES comes first, the peptide text is derived from it.

Experiments:
[1] = tested on: human fetal lung fibroblasts (IMR-90); experiment: TGF-β-mediated fibronectin expression in IMR-90 cells; type: cell-based; conditions: 1 h pre-treatment, TGF-β1 2 ng/ml 72 h
Protocol: Fibronection was measured as secreted fragments in the conditioned media. Equal amounts (14 μg) of total proteins from the conditioned media were loaded in each lane.

[2] = tested on: bleomycin-induced lung fibrosis in C57BL/6 mice; experiment: Bleomycin mouse model of pulmonary fibrosis, prevention model (dosing day 7 to 21); type: in vivo; conditions: for collagen levels in the lung (Masson's blue trichrome), dose response: 25, 50 or 75 μg/kg daily IP, day 7 to 21
Protocol: A mouse model of pulmonary fibrosis was generated by administering 0.025 U of bleomycin/PBS intratracheally to C57BL/6 mice. […] At 21 day post bleomycin delivery (for prevention model) or 28 post bleomycin delivery (for treatment model), groups of mice were sacrificed with a sodium pentobarbital injection (120 mg/kg) and the chest cavity was opened. The right mainstem bronchus was ligated and the right lung was removed. The trachea was cannulated and the left lung was perfused with 4% formaldehyde at 21 cm H2O pressure. The tissue blocks then were embedded in paraffin, and […] sections were prepared for staining. Sections from each animal were stained with hematoxylin and eosin (H&E) to visualize cells or with Masson's Trichrome staining to highlight collagen deposition. […] Stained sections were mounted onto a labeled glass slide with organic mounting medium.
Briefly, fibrotic loci in the lungs of the mice were induced by delivering intratracheally about 0.025 U of bleomycin (dissolved in PBS) to C57BL/6 mice. […] Briefly, mice were sacrificed with a sodium pentobarbital injection (120 mg/kg) and the chest cavity was opened. The right mainstem bronchus was ligated and the right lung was removed. The trachea was cannulated and the left lung was perfused with 4% formaldehyde at 21 cm H2O pressure. The tissue blocks then were embedded in paraffin, and […] sections were prepared, and stained with hematoxylin and eosin (H&E; for pathological examination) or Masson's Trichrome (for collagen staining)
Next, total collagen levels in the lungs of the bleomycin-injured mice (FIG. 12) were analyzed quantitatively by computing a constant conversion factor (7.5) for collagen from hydroxyproline concentrations (Neuman R. and Logan M, J Biol Chem., 186(2):549-56, 1950, incorporated by reference).
Next, the effect of increasing doses of MK2 peptide inhibitors on collagen deposition was examined in vivo using the bleomycin mouse model of idiopathic pulmonary fibrosis (prevention model). Briefly, C57-BL/6 mice were subjected to bleomycin injury at day 0.

[3] = molecular target: T1, GRK5(h) (Homo sapiens, UniProt P34947); experiment: Kinase Profiling Assay; type: biochemical; conditions: 100 μM peptide
T1 construct: purchased Millipore
T1 sequence (P34947 whole entry): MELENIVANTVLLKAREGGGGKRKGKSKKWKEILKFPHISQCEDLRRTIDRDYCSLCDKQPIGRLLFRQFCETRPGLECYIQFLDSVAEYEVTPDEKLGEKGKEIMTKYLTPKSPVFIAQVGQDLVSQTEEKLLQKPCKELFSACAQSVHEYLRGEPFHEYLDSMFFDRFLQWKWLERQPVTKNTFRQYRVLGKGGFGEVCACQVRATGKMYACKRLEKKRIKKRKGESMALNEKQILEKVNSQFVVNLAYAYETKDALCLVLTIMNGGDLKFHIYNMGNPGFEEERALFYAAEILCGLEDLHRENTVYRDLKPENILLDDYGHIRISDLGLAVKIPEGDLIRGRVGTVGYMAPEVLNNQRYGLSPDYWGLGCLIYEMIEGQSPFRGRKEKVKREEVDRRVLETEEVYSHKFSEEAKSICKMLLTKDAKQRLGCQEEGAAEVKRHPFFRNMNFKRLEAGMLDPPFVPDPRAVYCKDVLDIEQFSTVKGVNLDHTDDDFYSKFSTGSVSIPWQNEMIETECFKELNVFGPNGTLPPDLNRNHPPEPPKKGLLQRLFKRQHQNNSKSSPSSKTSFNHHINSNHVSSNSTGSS
Procedure, shortened: (§1)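 MK2 inhibitory peptides were screened for specificity across a commercial panel of 266 human kinases, and each kinase activity measurement was run in duplicate.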

[4] = molecular target: MAPK1(h) (Homo sapiens, UniProt P27361); experiment: Kinase Profiling Assay; type: biochemical; conditions: 100 μM peptide
MAPK1(h), sequence (P27361 whole entry): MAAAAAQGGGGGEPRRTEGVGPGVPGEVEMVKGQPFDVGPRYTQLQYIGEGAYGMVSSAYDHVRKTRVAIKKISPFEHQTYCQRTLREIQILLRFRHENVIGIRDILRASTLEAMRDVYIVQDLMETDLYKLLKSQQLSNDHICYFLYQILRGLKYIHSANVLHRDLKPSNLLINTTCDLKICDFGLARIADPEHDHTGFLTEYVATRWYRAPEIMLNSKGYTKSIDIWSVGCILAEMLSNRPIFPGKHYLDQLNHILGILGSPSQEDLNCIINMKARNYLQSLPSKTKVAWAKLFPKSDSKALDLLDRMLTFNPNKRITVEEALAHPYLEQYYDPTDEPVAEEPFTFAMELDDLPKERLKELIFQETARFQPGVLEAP
Procedure, shortened: as §1

[5] = molecular target: T2, JAK3(h) (Homo sapiens, UniProt P52333); experiment: Kinase Profiling Assay; type: biochemical; conditions: 100 μM peptide
T2 construct: purchased Millipore
T2 sequence (P52333 1-1124): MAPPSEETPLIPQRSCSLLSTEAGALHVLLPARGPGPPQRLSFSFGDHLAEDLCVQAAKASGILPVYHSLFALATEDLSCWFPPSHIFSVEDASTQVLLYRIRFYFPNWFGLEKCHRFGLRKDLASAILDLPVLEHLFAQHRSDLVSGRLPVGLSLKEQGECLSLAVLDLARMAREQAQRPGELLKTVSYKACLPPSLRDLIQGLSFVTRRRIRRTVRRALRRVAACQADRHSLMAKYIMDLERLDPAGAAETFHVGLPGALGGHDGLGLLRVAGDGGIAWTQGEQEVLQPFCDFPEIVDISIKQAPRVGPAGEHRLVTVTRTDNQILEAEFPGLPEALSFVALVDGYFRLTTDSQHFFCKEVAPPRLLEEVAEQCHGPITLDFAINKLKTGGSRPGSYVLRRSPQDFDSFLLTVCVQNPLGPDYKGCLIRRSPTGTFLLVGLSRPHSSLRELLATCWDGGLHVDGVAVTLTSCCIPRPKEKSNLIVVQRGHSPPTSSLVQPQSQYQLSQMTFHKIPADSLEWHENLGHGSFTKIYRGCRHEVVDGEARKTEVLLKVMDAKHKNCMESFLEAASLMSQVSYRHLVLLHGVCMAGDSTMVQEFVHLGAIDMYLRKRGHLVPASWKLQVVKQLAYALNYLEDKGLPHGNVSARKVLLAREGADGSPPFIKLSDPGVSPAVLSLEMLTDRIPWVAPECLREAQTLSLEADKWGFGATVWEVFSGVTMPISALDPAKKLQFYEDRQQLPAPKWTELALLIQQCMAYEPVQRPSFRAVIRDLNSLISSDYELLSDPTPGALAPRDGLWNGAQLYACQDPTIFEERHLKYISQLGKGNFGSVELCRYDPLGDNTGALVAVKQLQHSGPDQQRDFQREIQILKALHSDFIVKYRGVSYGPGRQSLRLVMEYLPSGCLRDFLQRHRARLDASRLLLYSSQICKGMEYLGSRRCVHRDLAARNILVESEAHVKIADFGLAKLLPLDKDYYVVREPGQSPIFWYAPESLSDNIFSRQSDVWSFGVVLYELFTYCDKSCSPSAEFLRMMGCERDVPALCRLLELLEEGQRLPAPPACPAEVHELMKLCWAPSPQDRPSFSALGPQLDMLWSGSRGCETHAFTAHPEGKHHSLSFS
Procedure, shortened: as §1

[6] = molecular target: Abl(M351T)(h) (Homo sapiens, UniProt P00519, M351T); experiment: Kinase Profiling Assay; type: biochemical; conditions: 100 μM peptide
Procedure, shortened: as §1

[7] = molecular target: cKit(V560G)(h) (Homo sapiens, UniProt P10721, V560G); experiment: Kinase Profiling Assay; type: biochemical; conditions: 100 μM peptide
Procedure, shortened: as §1

[8] = molecular target: T3, MKK7β(h) (Homo sapiens, UniProt O14733); experiment: Kinase Profiling Assay; type: biochemical; conditions: 100 μM peptide
T3 sequence (O14733 1-419): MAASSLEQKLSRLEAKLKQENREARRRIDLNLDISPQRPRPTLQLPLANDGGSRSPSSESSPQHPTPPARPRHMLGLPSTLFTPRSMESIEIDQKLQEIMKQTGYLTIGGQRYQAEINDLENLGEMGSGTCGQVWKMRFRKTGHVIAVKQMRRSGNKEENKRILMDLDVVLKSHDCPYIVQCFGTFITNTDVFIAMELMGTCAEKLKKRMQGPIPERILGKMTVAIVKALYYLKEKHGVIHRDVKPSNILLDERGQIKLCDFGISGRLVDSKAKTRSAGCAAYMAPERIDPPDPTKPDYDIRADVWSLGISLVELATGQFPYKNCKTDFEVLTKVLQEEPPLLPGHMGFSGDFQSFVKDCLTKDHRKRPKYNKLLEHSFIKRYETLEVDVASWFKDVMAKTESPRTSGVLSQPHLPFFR
Procedure, shortened: as §1

[9] = nebulization or intraperitoneal, daily day 7 to 21, lung at day 21

Row | Compound | protein level of fibronectin (conditioned media) [1] | collagen levels in the lung (Masson's blue trichrome), dose response [2] | GRK5(h) % activity [3] [%] | MAPK1(h) % activity [4] [%] | JAK3(h) % activity [5] [%] | Abl(M351T)(h) % activity [6] [%] | cKit(V560G)(h) % activity [7] [%] | MKK7β(h) % activity [8] [%] | further results
1 | CC(C)C[C@H](NC(=O)[C@H](C)NC(=O)[C@H](CCCCN)NC(=O)[C@H](C)NC(=O)[C@H](CCCNC(=N)N)NC(=O)[C@H](C)NC(=O)[C@H](CCC(N)=O)NC(=O)[C@H](CCCNC(=N)N)NC(=O)[C@H](C)NC(=O)[C@H](C)NC(=O)[C@H](C)NC(=O)[C@H](CCCNC(=N)N)NC(=O)[C@H](C)NC(=O)[C@@H](N)Cc1ccc(O)cc1)C(=O)N[C@@H](C)C(=O)N[C@@H](CCCNC(=N)N)C(=O)N[C@@H](CCC(N)=O)C(=O)N[C@@H](CC(C)C)C(=O)NCC(=O)N[C@H](C(=O)N[C@@H](C)C(=O)N[C@@H](C)C(=O)O)C(C)C [MMI-0100] (H-YARAAARQARAKALARQLGVAA-OH; N-terminus and C-terminus assumed) | decreases in the levels | decrease in collagen levels | – | – | – | – | – | – | collagen accumulation (Masson's Trichrome staining) [2, 9]: reduced collagen accumulation; fibrotic loci formation (H&E staining) [2, 9]: significantly reduced development of fibrotic loci formation; total collagen levels in the lungs (from hydroxyproline) ([2]; nebulized or systemic (IP), post-inflammatory/pre-fibrotic stage, vs bleomycin control): significantly decreased collagen deposition
2 | YARAAARQARAKALNRQLGVA (Mammalian) [MMI-0200] | no changes in the protein level | did not reduce, but rather increased the collagen deposition | 135 | 97 | – | – | – | – | –
3 | HRRIKAWLKKIKALARQLGVAA (Mammalian) [MMI-0500] | – | – | – | – | 95 | 61 | 198 | – | –
4 | KAFAKLAARLYRKALARQLGVAA [MMI-0400] | – | – | 131 | 100 | 122 | – | 124 | 94 | –
5 | FAKLAARLYRKALARQLGVAA [MMI-0300] | – | – | – | – | – | 90 | – | 100 | –
